According to patent publication US20240270857A1 (CHIA TAI TIANQING PHARMACEUTICAL GROUP, published 2024):
One block for each binder: values may come before it.

Biological target: T1, human IL-36R overexpressed on 293T-hIL36R-NFκB cells (human, UniProt Q9HB29 20-575)
T1 construct: Entry includes the signal peptide; also called IL1RL2; IL-1Rrp2
T1 sequence: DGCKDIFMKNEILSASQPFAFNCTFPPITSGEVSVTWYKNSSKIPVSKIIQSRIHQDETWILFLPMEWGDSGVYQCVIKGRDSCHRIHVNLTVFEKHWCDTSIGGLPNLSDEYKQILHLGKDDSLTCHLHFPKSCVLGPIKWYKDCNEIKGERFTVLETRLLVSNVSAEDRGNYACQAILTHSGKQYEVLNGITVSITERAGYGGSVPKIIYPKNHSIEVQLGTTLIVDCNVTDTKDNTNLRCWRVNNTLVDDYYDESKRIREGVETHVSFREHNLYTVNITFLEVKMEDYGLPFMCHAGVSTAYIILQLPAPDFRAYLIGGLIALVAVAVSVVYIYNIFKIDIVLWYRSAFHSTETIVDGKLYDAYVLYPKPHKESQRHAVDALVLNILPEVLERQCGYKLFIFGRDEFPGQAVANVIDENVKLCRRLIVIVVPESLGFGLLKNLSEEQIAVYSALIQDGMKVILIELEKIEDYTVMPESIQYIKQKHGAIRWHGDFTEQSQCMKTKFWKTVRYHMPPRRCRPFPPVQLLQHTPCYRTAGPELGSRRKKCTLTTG
Assay: FACS on 293T-hIL36R-NFκB cells, ratio of MFI to background MFI
Method: After the cells was washed with PBS, the cells were resuspended with 100 μL of PBS and then the fluorescence signal was detected using a flow cytometer (BD, Accuri C6). […] The ratio was the ratio of mean fluorescence intensity (MFI) of the experimental group/the background MFI, and the resulting data were analyzed using GraphPad Prism.

EC50: 7.02 nM
B1: BI655130 (antibody, human IgG1, kappa, L234A L235A)
heavy: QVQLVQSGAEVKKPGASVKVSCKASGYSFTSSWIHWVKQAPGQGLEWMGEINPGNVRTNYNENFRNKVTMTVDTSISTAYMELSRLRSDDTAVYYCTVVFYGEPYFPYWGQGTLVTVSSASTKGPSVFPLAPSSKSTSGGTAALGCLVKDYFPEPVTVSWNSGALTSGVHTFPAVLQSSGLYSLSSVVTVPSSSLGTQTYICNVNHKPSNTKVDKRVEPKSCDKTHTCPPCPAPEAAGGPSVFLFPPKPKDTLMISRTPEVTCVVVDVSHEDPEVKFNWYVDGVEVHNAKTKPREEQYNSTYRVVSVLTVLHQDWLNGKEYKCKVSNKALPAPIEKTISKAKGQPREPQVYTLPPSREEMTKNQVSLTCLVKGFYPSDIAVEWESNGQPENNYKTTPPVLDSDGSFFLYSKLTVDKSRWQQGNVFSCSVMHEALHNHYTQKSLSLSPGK
light: QIVLTQSPGTLSLSPGERATMTCTASSSVSSSYFHWYQQKPGQAPRLWIYRTSRLASGVPDRFSGSGSGTDFTLTISRLEPEDAATYYCHQFHRSPLTFGAGTKLEIKRTVAAPSVFIFPPSDEQLKSGTASVVCLLNNFYPREAKVQWKVDNALQSGNSQESVTEQDSKDSTYSLSSTLTLSKADYEKHKVYACEVTHQGLSSPVTKSFNRGEC
notes: also called Spesolimab

EC50: 6.47 nM
B2: chimeric 72C1 antibody (antibody, human IgG4 S228P, kappa)
heavy: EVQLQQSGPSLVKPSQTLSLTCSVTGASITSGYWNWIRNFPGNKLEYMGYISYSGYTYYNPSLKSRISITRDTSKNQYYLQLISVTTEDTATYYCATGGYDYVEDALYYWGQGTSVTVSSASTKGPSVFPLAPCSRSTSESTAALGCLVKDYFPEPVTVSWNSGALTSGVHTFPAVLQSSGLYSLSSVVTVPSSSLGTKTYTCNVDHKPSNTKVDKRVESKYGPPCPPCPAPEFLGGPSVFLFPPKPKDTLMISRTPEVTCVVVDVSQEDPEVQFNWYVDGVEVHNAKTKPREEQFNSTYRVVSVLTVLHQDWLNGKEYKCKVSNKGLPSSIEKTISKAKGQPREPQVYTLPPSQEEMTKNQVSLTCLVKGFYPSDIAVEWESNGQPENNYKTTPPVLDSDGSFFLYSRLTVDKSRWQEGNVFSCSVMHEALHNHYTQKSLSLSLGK
light: EILLTQSPAIMSATLGEKVTMSCRASSNVRYMYWYQLKSGASPKLWIYLTSNLASGVPARFSGSGSGTSYSLTISSVEAEDAATYFCQQFTTSPYTFGGGTKLEIKRTVAAPSVFIFPPSDEQLKSGTASVVCLLNNFYPREAKVQWKVDNALQSGNSQESVTEQDSKDSTYSLSSTLTLSKADYEKHKVYACEVTHQGLSSPVTKSFNRGEC
notes: Mouse variable regions on human IgG4 / kappa; also called xi72C1
